Experimental data taken from EP4745156A1.
Positions count from the first letter of the chain named.

B1: 6465-H1K2-canIgGB (antibody, V domains shown)
VH: EVQLVESGGDLVKPGGSLRLSCVASGYSFTNYYLYWVRQAPGKGLEWVGELNPRNGGTNLNAKFKTRFTISVDKAKNMAYLQMNSLRAEDTAVYYCTRGGTTVVVRDVMDFWGQGTLVTVSS
VL: DIVLTQTPLSLSVSPGEPASISCRASESVDSYGNSFMHWYRQKPGQSPQLLIYRASNLESGVPDRFSGSGSRTDFTLRISRVEADDAGVYYCQQSNEDPYTFGQGTKLEIKR
B2: 6465-H2K2-canIgGB (antibody, V domains shown)
VH: B1 VH with E46Q, V48L, M78T
VL: B1 VL
B3: 6465-H3K2-canIgGB (antibody, V domains shown)
VH: B1 VH with G49A, V72R, K74N
VL: B1 VL
B4: 6465-H1K3-canIgGB (antibody, V domains shown)
VH: B1 VH
VL: B1 VL with L4M, R72G
B5: 6465-H2K3-canIgGB (antibody, V domains shown)
VH: B1 VH with E46Q, V48L, M78T
VL: B1 VL with L4M, R72G

Target: His-tagged canine IL-31 (interleukin 31) recombinant protein (canine)
Experiment: cell-based or functional assay

Binder | pSTAT IC50 (µg/mL)
B1 | 7.9
B2 | 7.3
B3 | 8.2
B4 | 7.4
B5 | 7.6

Target: His-tagged canine IL-31 (interleukin 31) recombinant protein (canine)
Experiment: BLI (Gator), biotinylated antibody on streptavidin probe, canine IL-31 as analyte

Binder | Kd [nM] | koff [s⁻¹] | kon [M⁻¹ s⁻¹]
B1 | 6.54 | 0.00088 | 135000
B2 | 17.8 | 0.00166 | 93200
B3 | 6.95 | 0.00361 | 519000
B4 | 2.5 | 0.00145 | 579000
B5 | 4.99 | 0.001 | 201000
